Assay results published in article PMC11742113 (Molecular Biology of the Cell, 2025).

Target: T1, S. aureus FtsZ, full length (Staphylococcus aureus, UniProt P0A031 1-390, FITC label, ~0.7 FITC per FtsZ)
T1 sequence: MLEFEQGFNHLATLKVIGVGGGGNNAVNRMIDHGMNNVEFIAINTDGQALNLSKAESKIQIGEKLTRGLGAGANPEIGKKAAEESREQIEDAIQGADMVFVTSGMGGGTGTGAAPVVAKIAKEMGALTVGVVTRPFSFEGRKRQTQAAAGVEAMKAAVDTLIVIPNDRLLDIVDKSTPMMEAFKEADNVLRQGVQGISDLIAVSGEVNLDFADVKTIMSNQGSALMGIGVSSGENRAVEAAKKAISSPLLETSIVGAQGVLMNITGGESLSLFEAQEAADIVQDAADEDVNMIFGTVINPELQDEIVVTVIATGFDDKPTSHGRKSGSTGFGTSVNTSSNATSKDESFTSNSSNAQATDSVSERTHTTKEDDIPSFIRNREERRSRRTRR
Experiment: other fluorescence titration

B1: S. aureus GpsB (natural protein)
chain: MSDVSLKLSAKDIYEKDFEKTMARGYRREEVDAFLDDIIADYQKMADMNNEVVKLSEENHKLKKELEELRLRVATSRPQDNKSFSSNNTTTNTSSNNVDILKRISNLEKAVFGK
  Kd: 53.8 ± 8 µM
